Data reported in PMC3237003 (Toxins, 2011).

B1: sdAb Abr5 (VHH)
VHH: EVQLQASGGGLVQAGGSLRLSCVVSGLSVGLNPVAWYRQAPGQQRDWVARMSMRGLTDYPDSLKGRAIISRDNAKNTVSLQMDSLKPEDTAVYFCKVGLSYWGQGTQVTVSS
notes: source: E. coli Rosetta, soluble sdAb expression vector
B2: sdAb Abr1 (VHH)
VHH: EVQLQASGGGLVQAGGSLRLSCAASGSDGSLEIMGWYRQAPGKQRELVARATSGGLKNYADSVKGRFTISGDLDKNTVYLQMNSLQPEDTGVYVCHLGVVASTYRDYWGQGTQVTVSS
notes: as for B1
B3: sdAb Abr2 (VHH)
VHH: DVQLQASGGGLVQAGGSLVLSCTASGRSVSSLAMGWLRQVPGKERELVGSISLSGGRTYYADSMKGRFTISKDNAKNTVALQMNSLRPEDTAVYYCAARDAARDYAPLNFDTWGQGTQVTVSS
notes: as for B1

target: T1, staphylococcal enterotoxin B (SEB) (Staphylococcus aureus, strain , UniProt P01552); test: Luminex direct binding (microsphere fluorescence immunoassay); settings: both partners purified
T1 construct: source: bought: Toxin Technology, Inc
T1 sequence (P01552 28-266): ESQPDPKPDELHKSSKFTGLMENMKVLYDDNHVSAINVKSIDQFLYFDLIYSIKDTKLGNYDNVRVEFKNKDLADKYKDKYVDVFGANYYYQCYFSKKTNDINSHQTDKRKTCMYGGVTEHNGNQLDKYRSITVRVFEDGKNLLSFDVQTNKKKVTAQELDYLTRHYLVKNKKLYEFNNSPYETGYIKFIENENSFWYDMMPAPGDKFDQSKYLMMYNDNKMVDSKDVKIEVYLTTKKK

**Q.** Does B1 bind?
**A.** no binding

**Q.** Does B2 bind?
**A.** no binding

**Q.** Does B3 bind?
**A.** no binding

target: bovine serum albumin (BSA) (Bos taurus, UniProt P02769); test: as above; settings: both partners purified
Sequence (P02769 25-607): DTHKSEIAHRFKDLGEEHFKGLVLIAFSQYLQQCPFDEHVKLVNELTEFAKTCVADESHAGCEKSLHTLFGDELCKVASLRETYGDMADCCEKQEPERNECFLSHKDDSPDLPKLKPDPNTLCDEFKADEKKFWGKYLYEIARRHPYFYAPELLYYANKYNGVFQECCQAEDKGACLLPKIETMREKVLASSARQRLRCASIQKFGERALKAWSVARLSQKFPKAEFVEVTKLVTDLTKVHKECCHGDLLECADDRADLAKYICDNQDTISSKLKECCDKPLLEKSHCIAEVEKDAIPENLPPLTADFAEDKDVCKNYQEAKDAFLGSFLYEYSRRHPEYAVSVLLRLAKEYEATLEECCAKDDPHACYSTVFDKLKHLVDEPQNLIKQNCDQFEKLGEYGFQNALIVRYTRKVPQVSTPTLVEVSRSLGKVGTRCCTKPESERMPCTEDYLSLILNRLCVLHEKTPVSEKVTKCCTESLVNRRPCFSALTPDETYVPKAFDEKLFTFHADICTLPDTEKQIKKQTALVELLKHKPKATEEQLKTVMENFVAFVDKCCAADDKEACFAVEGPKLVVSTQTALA

**Q.** Does B1 bind?
**A.** no binding

**Q.** Does B2 bind?
**A.** no binding

**Q.** Does B3 bind?
**A.** no binding
